Source: paper PMC5887453 (Nucleic Acids Research, 2018)

Key:
Assay in all cases: native gel or EMSA
[1] = molecular target: T1, PhoEF-2 M167S (Pyrococcus horikoshii, UniProt O59521 1-732, M167S)
T1 sequence (looked up): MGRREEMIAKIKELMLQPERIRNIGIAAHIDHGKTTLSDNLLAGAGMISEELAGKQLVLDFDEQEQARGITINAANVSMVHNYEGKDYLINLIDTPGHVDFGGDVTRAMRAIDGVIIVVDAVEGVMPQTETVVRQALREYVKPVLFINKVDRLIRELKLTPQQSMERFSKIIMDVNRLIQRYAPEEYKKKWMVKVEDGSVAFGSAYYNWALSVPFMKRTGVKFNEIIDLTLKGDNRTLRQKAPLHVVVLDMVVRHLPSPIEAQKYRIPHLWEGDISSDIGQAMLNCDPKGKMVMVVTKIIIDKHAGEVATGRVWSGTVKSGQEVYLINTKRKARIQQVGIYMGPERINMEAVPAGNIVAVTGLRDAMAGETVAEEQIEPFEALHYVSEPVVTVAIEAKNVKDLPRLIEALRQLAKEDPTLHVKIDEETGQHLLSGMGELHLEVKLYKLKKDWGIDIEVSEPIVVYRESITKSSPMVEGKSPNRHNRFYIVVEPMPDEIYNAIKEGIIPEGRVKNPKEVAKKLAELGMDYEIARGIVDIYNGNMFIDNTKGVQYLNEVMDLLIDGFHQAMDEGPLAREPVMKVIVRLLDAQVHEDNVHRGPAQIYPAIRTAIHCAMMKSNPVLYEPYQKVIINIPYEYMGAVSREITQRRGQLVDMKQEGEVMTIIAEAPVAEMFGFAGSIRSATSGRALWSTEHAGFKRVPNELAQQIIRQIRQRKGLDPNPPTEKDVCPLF

[2] = molecular target: T2, PhoEF-2 F205S (Pyrococcus horikoshii, UniProt O59521 1-732, F205S)
T2 sequence (looked up): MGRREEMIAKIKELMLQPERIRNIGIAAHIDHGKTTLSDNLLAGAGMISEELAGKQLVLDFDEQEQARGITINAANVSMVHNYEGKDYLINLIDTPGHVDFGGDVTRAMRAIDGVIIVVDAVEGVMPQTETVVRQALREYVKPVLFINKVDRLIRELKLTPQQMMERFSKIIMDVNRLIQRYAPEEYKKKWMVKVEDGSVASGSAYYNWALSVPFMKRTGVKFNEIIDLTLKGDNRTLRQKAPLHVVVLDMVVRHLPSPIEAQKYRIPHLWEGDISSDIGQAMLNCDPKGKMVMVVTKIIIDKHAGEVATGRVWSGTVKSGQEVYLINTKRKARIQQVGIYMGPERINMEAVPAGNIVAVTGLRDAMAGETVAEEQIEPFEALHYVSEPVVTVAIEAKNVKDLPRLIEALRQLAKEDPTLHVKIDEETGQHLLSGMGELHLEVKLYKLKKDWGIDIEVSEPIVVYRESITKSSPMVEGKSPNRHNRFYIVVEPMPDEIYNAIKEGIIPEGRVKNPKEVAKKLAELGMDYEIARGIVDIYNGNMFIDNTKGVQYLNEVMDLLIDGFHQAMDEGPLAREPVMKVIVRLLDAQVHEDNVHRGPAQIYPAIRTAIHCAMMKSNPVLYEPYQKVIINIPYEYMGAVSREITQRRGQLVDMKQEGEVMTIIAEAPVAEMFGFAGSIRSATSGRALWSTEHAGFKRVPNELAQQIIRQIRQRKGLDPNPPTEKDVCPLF

[3] = molecular target: T3, PhoEF-2 P164S (Pyrococcus horikoshii, UniProt O59521 1-732, P164S)
T3 sequence (looked up): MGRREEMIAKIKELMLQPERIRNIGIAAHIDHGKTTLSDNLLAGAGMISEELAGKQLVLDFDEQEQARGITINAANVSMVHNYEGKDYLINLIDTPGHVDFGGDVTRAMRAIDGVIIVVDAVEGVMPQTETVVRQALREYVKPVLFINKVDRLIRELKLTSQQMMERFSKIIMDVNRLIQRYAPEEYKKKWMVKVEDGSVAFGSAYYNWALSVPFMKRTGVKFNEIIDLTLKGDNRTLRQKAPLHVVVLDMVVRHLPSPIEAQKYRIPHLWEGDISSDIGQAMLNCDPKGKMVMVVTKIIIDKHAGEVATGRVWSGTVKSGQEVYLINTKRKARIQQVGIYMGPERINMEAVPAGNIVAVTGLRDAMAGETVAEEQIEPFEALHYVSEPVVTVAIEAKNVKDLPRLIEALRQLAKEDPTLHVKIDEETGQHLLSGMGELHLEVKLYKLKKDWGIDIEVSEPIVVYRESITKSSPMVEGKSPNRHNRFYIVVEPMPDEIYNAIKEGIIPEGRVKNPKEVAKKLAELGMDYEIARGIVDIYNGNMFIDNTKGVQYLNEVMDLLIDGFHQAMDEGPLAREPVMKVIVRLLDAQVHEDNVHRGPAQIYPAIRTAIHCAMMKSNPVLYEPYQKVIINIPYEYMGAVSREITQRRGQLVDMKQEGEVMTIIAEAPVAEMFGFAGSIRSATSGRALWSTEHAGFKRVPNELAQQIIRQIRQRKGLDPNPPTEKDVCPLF

binding result [1]: binds | binding result [2]: binds | binding result [3]: binds
B1: Pyrococcus horikoshii ribosomal stalk protein P1 (natural protein, UniProt O57705 1-108, looked up)
chain: MEYVYAALLLHSVGKEINEENLKAVLQAAGVEPEEARIKALVAALEGVNIDEVIEKAAMPVAVAAAPAAAPAEAGGEEKKEEEKKEEEEKEEEVSEEEALAGLSALFG
modifications: in the SPR only: biotin on amino groups via a PEG linker (EZ-Link NHS-PEG4-Biotin)
